PMC3352997
Changes are numbered by the printed parent chain. Where two headings read alike, the source gives them in different places. One block for each binder: values may come before it.

Experiments:
[1] = target: Factor XIa (activated factor XI), human plasma (human); test: enzyme inhibition kinetics
[2] = target: Factor XIa (activated factor XI), human plasma (human); test: titration of protease activity
[3] = target: Factor XIa (activated factor XI), human plasma (human); test: titration of protease activity; remark: listed apart in the source
[4] = target: Factor Xa (activated factor X), human plasma (human); test: titration of protease activity
Chain of Factor Xa (activated factor X), human plasma (human) (P00742 whole entry): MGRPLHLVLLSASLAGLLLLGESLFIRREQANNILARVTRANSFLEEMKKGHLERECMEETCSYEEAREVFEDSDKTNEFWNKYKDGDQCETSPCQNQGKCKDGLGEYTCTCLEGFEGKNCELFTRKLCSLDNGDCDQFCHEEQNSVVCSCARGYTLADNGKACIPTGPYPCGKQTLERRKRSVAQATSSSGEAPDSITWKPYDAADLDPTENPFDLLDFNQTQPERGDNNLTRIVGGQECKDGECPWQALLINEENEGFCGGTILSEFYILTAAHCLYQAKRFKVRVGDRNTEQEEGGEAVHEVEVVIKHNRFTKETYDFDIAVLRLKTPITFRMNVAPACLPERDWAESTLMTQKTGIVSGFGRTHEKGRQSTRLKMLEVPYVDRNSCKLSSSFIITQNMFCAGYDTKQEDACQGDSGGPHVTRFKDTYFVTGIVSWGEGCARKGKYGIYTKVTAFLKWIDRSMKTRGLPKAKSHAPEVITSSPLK

[5] = target: Factor Xa (activated factor X), human plasma (human); test: titration of protease activity; remark: listed apart in the source
[6] = target: Factor Xa (activated factor X), human plasma (human); test: enzyme inhibition kinetics
[7] = target: Factor Xa (activated factor X), human plasma (human); test: enzyme inhibition kinetics; remark: listed apart in the source
[8] = target: Factor Xa (activated factor X), human plasma (human); test: titration of protease activity; remark: listed apart in the source
[9] = target: FXa-R240A (heparin-binding exosite mutant of factor Xa) (UniProt P00742); test: enzyme inhibition kinetics
[10] = target: FXa-R240A (heparin-binding exosite mutant of factor Xa) (UniProt P00742); test: enzyme inhibition kinetics; remark: listed apart in the source
[11] = target: Factor XIa (activated factor XI), human plasma (human); test: enzyme inhibition kinetics; remark: listed apart in the source
[12] = target: Factor Xa (activated factor X), human plasma (human); test: enzyme inhibition kinetics; remark: listed apart in the source

B1: Protein Z-dependent protease inhibitor, wild type (natural protein)
chain: LAPSPQSPETPAPQNQTSRVVQAPKEEEEDEQEASEEKASEEEKAWLMASRQQLAKETSNFGFSLLRKISMRHDGNMVFSPFGMSLAMTGLMLGATGPTETQIKRGLHLQALKPTKPGLLPSLFKGLRETLSRNLELGLTQGSFAFIHKDFDVKETFFNLSKRYFDTECVPMNFRNASQAKRLMNHYINKETRGKIPKLFDEINPETKLILVDYILFKGKWLTPFDPVFTEVDTFHLDKYKTIKVPMMYGAGKFASTFDKNFRCHVLKLPYQGNATMLVVLMEKMGDHLALEDYLTTDLVETWLRNMKTRNMEVFFPKFKLDQKYEMHELLRQMGIRRIFSPFADLSELSATGRNLQVSRVLQRTVIEVDERGTEAVAGILSEITAYSMPPVIKVDRPFHFMIYEETSGMLLFLGRVVNPTLL
k2(app) (apparent second-order association rate constant of inhibition) [1]: 420000 M⁻¹ s⁻¹
SI (stoichiometry of inhibition) [2]: 4.3 mol I/mol E
SI (stoichiometry of inhibition) [3]: 10.2 mol I/mol E
SI (stoichiometry of inhibition) [4]: 3.8 mol I/mol E
SI (stoichiometry of inhibition) [5]: 2.8 mol I/mol E
k2(app) (apparent second-order association rate constant of inhibition) [6]: 2.5e+06 M⁻¹ s⁻¹
k2(app) (apparent second-order association rate constant of inhibition) [7]: 180000 M⁻¹ s⁻¹
SI (stoichiometry of inhibition) [8]: 4.1 mol I/mol E
k2 (second-order association rate constant of inhibition) [9]: 30000 M⁻¹ s⁻¹
k2 (second-order association rate constant of inhibition) [10]: 2800 M⁻¹ s⁻¹
k2(app) (apparent second-order association rate constant of inhibition) [11]: 58000 M⁻¹ s⁻¹
k2(app) (apparent second-order association rate constant of inhibition) [12]: 3400 M⁻¹ s⁻¹

B3: ZPI single mutant with Lys-113 substituted with Ala (natural protein)
chain: B1 chain with K113A
fold decrease in reactivity in the presence of heparin [11]: < 2 fold
fold decrease in reactivity in the presence of heparin [12]: < 2 fold

B5: ZPI single mutant with Arg-128 substituted with Ala (natural protein)
chain: B1 chain with R128A
fold decrease in reactivity in the presence of heparin [11]: < 2 fold
fold decrease in reactivity in the presence of heparin [12]: < 2 fold

B7: ZPI-des-NT (ZPI with the first 52 residues of the acidic N-terminal tail deleted) (domain or fragment)
chain: QLAKETSNFGFSLLRKISMRHDGNMVFSPFGMSLAMTGLMLGATGPTETQIKRGLHLQALKPTKPGLLPSLFKGLRETLSRNLELGLTQGSFAFIHKDFDVKETFFNLSKRYFDTECVPMNFRNASQAKRLMNHYINKETRGKIPKLFDEINPETKLILVDYILFKGKWLTPFDPVFTEVDTFHLDKYKTIKVPMMYGAGKFASTFDKNFRCHVLKLPYQGNATMLVVLMEKMGDHLALEDYLTTDLVETWLRNMKTRNMEVFFPKFKLDQKYEMHELLRQMGIRRIFSPFADLSELSATGRNLQVSRVLQRTVIEVDERGTEAVAGILSEITAYSMPPVIKVDRPFHFMIYEETSGMLLFLGRVVNPTLL
k2(app) (apparent second-order association rate constant of inhibition) [1]: 110000 M⁻¹ s⁻¹
k2(app) x SI (second-order rate constant corrected for SI) [1]: 940000 M⁻¹ s⁻¹
SI (stoichiometry of inhibition) [2]: 8.5 mol I/mol E
SI (stoichiometry of inhibition) [3]: 15.6 mol I/mol E
SI (stoichiometry of inhibition) [4]: 7.3 mol I/mol E
SI (stoichiometry of inhibition) [5]: 4.5 mol I/mol E
k2(app) (apparent second-order association rate constant of inhibition) [6]: 1.8e+06 M⁻¹ s⁻¹
k2(app) x SI (second-order rate constant corrected for SI) [6]: 8.1e+06 M⁻¹ s⁻¹
SI (stoichiometry of inhibition) [8]: 7.4 mol I/mol E
k2(app) (apparent second-order association rate constant of inhibition) [11]: 29000 M⁻¹ s⁻¹
k2(app) x SI (second-order rate constant corrected for SI) [11]: 450000 M⁻¹ s⁻¹
k2(app) (apparent second-order association rate constant of inhibition) [12]: 2100 M⁻¹ s⁻¹
k2(app) x SI (second-order rate constant corrected for SI) [12]: 15000 M⁻¹ s⁻¹

Continued, values first:

k2(app) (apparent second-order association rate constant of inhibition) [1]: 260000 M⁻¹ s⁻¹
k2(app) x SI (second-order rate constant corrected for SI) [1]: 1.4e+06 M⁻¹ s⁻¹
SI (stoichiometry of inhibition) [2]: 5.2 mol I/mol E
SI (stoichiometry of inhibition) [3]: 13.3 mol I/mol E
SI (stoichiometry of inhibition) [4]: 3.8 mol I/mol E
SI (stoichiometry of inhibition) [5]: 3.3 mol I/mol E
k2(app) (apparent second-order association rate constant of inhibition) [6]: 2e+06 M⁻¹ s⁻¹
k2(app) x SI (second-order rate constant corrected for SI) [6]: 6.6e+06 M⁻¹ s⁻¹
k2(app) (apparent second-order association rate constant of inhibition) [7]: 95000 M⁻¹ s⁻¹
k2(app) x SI (second-order rate constant corrected for SI) [7]: 360000 M⁻¹ s⁻¹
SI (stoichiometry of inhibition) [8]: 4.5 mol I/mol E
k2(app) (apparent second-order association rate constant of inhibition) [11]: 41000 M⁻¹ s⁻¹
k2(app) x SI (second-order rate constant corrected for SI) [11]: 540000 M⁻¹ s⁻¹
k2(app) (apparent second-order association rate constant of inhibition) [12]: 2600 M⁻¹ s⁻¹
k2(app) x SI (second-order rate constant corrected for SI) [12]: 12000 M⁻¹ s⁻¹
B2: ZPI-3A (ZPI with Lys-113, Lys-116 and Lys-125 substituted with Ala) (natural protein)
chain: B1 chain with K113A, K116A, K125A

fold decrease in reactivity in the presence of heparin [11]: < 2 fold
fold decrease in reactivity in the presence of heparin [12]: < 2 fold
B4: ZPI single mutant with Lys-125 substituted with Ala (natural protein)
chain: B1 chain with K104A

fold decrease in reactivity in the presence of heparin [11]: < 2 fold
fold decrease in reactivity in the presence of heparin [12]: < 2 fold
B6: ZPI single mutant with Lys-116 substituted with Ala (natural protein)
chain: B1 chain with K116A
